In publication PMC9892617, “Small-angle x-ray and neutron scattering of MexR and its complex with DNA supports a conformational selection binding model” (Biophysical Journal, 2022):

B1: MexR (Val5-Leu139) (domain or fragment)
chain: VNPDLMPALMAVFQHVRTRIQSELDCQRLDLTPPDVHVLKLIDEQRGLNLQDLGRQMCRDKALITRKIRELEGRNLVRRERNPSDQRSFQLFLTDEGLAIHQHAEAIMSRVHDELFAPLTPVEQATLVHLLDQCL
notes: MexR, transcriptional repressor of the MarR family, Pseudomonas aeruginosa, UniProt P52003, residues Val5-Leu139; Homodimer in solution; also called apo-MexR; hMexR; source: E. coli BL21 Rosetta 2(DE3), purified (Ni-NTA IMAC, TEV cleavage, reverse IMAC, Superdex 75)
B2: PII DNA (dsDNA)
DNA 1: CTTATTTTAGTTGACCTTATCAACCTTGTTTCAG
DNA 2: CTGAAACAAGGTTGATAAGGTCAACTAAAATAAG

What was measured:
[1] = molecular target: the molecule itself; assay: SEC-MALS; Superdex 75 Increase 5/150, 20 mM HEPES pH 7.1, 150 mM NaCl, 10 mM DTT, 1% v/v glycerol, 0.3 mL/min, 20°C; MALLS with RI detection
[2] = molecular target: T1, MexR (Pseudomonas aeruginosa, UniProt P52003 5-139); assay: ITC; one MexR dimer per duplex; 20 C; ITC: 20 mM sodium phosphate pH 7.1, 150 mM NaCl, 5 mM beta-mercaptoethanol, 20 C; complex sample buffer: 20 mM sodium phosphate pH 7.1, 150 mM NaCl, 10 mM DTT; conditions: protein: recombinant; tags: 6xHis-thioredoxin tag removed with TEV; chain copies: 2; blunt
T1 sequence: B1 chain

| Binder | stoichiometry N [1] | Kd [2] |
| --- | --- | --- |
| B1 | 2 |  |
| B2 |  | 240 nM |
